According to paper PMC3101595 (The Journal of Cell Biology, 2010):

Columns and labels:
6His-Flag-DIAP1 = biological target: T1, 6His-Flag-DIAP1 (Drosophila, UniProt Q24306 1-438); assay: co-IP
T1 sequence (looked up): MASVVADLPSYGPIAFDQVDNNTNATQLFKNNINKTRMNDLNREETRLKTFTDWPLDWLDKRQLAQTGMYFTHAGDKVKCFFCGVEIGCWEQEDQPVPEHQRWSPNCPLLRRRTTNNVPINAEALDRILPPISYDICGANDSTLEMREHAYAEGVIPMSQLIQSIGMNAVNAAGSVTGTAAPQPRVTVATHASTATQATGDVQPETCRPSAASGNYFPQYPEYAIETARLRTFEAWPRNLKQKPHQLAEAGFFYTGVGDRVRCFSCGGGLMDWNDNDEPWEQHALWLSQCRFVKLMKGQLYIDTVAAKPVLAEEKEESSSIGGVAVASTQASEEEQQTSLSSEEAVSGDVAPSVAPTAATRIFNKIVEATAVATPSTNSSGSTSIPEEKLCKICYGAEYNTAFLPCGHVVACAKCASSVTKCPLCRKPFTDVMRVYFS

cross-linking = biological target: the molecule itself; assay: cross-linking

B1: HidΔMTS-His6 (domain or fragment, Drosophila, UniProt Q24106 1-386, looked up)
chain: MAVPFYLPEGGADDVASSSSGASGNSSPHNHPLPSSASSSVSSSGVSSASASSASSSSSASSDGASSAASQSPNTTTSSATQTPMQSPLPTDQVLYALYEWVRMYQSQQSAPQIFQYPPPSPSCNFTGGDVFFPHGHPNPNSNPHPRTPRTSVSFSSGEEYNFFRQQQPQPHPSYPAPSTPQPMPPQSAPPMHCSHSYPQQSAHMMPHHSAPFGMGGTYYAGYTPPPTPNTASAGTSSSSAAFGWHGHPHSPFTSTSTPLSAPVAPKMRLQRSQSDAARRKRLTSTGEDEREYQSDHEATWDEFGDRYDNFTAGRERLQEFNGRIPPRKKKSSNSHSSSSNNPVCHTDSQPGGTSQAESGAIHGHISQQRQVERERQKAKAEKKKP
binding result (6His-Flag-DIAP1): binds
binding result (cross-linking): binds

B2: Rpr-His6 (natural protein, Drosophila, UniProt Q24475 1-65, looked up)
chain: MAVAFYIPDQATLLREAEQKEQQILRLRESQWRFLATVVLETLRQYTSCHPKTGRKSGKYRKPSQ
binding result (cross-linking): binds
